Results on eight molecules are retold here after patent publication US20190092852A1.

Residue numbers refer to the chain shown, from its start.

To fix the notation:
T1: human IL-33 (R&D Systems, #3625-IL-010/CF) (human) (UniProt O95760)
T1 sequence (looked up): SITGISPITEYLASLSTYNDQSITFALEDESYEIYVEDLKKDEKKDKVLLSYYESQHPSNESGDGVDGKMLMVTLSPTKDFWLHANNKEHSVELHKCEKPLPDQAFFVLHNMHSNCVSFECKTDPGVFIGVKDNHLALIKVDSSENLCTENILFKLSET

T2: biotinylated human IL-33 (human) (UniProt O95760)
T2 sequence (biotin-labeled with EZ-LINK NHS-PEG4-Biotin, looked up): T1 sequence (looked up)

B1: H4H9662P (antibody, from another filing, IgG4, V domains shown)
VH: EVQLVESGGGLVQPGGSLRLSCAASGFTFSSYALTWVRQAPGKGLEWVSFISGSGGRPFYADSVKGRFTISRDNSKNMLYLQMNSLRAEDTAIYYCAKSLYTTSWYGGFDSWGQGTLVTVSS
VL: DIQMTQSPSSVSASVGDRVTITCRASQGVVSWLAWYQQKPGKAPKLLIYAASSLQSGVPSRFSGSGSGTDFTLTISSLQPEDFATYYCQQSNSFPFTLGPGTKVDIK
B2: H4H9665P (antibody, from another filing, IgG4, V domains shown)
VH: EVQLVESGGGLVQPGGSLRLSCAASGFTFSNYAMTWVRQAPGKGLEWVSTISGSGDNTYYADSVQGRFTISRGHSKNTLYLQMNSLRAEDTAVYYCAKPTYSRSWYGAFDFWGQGTMVTVSS
VL: B1 VL with V29I, V30S, K45Q, S53R, S63W, S91A, S93N, L98F
B3: H4H9663P (antibody, from another filing, IgG4, V domains shown)
VH: QVQLVQSGAEVKKPGASVKVSCKASGYTFTGHYMYWMRQAPGQGLEWMGWINPNSGGTNYAQKFQDRVTMTRDTSISTAYMELSRLRSDDTAVYYCARGRYGSSWYGGFEYWGQGTLVTVSS
VL: DIQMTQSPSSVSASVGDRVTITCRASQGITSWLAWYQQKPGKAPNLLIYAAASLQSGVPSRFSGSGSGTDFTLTISSLQPEDFTTYYCQQAYSLPLTFGGGTKVEIK
B4: H4H9670P (antibody, from another filing, IgG4, V domains shown)
VH: EVQLVESGGGLVQPGGSLRLSCAASGFTLSSYAMSWVRQAPGKGLEWVSAISGSGGSTYYADSVKGRFTISRDNSKNSLYLQLNSLRAEDTAVYYCAKTLYTTSWYGGFQHWGQGTLVTVSS
VL: DIQMTQSPSSVSASIGDRVTITCRASQGISSWLAWYQQKPGKVPKLLIYAASSLQSGFPSRFSGSGSGTDFTLTISSLQPEDFATYYCQQTHSFPWTVGQGTKVEIK
B5: H4H9664P (antibody, from another filing, IgG4, V domains shown)
VH: QVQLVESGGGVVQPGRSLRLSCAASGFTFSSYGLHWVRQSPGKGLEWVALISYDGSNKYYADSVKGRFTISRDNSKNTLYLQMNSLRPEDTAGYFCAKSLYTTSWYGGFDYWGQGTLVTVSS
VL: B1 VL with V29I, V30R, K45N, S91A, F96P, L98F
B6: H4H9666P (antibody, from another filing, IgG4, V domains shown)
VH: QVQLVQSGAEVKKPGASVKVSCKASGYTFTSYGISWVRQAPGQGLEWMGWIRAYNGYTNYAQKFQGRVTMTTDTSTNTAYMELRTLNSDDTAVYYCARDRYSGSFHGNFDYWGQGTLVTVSS
VL: B3 VL with T30F, N45K, L46V, A52S, S53N, Q55E, T84A, Y92N
B7: H4H9671P (antibody, from another filing, IgG4, V domains shown)
VH: EVQLVESGGGLVQPGGSLRLSCAASGFTLRSYFMTWVRQVPGKGLEGVSAISGISGGTYYTDSVKGRFTISRDNSKNTLFLQMNSLRAEDTAVYFCARTVYSSSYYGGFQHWGQGTLVTVSS
VL: B4 VL with A13V, I15V, V43A, A50V, F58V, H92N, W96L, V98F, Q100G
B8: H4H9675P (antibody, from another filing, IgG4, V domains shown)
VH: EVQLVESGGNLEQPGGSLRLSCTASGFTFSRSAMNWVRRAPGKGLEWVSGISGSGGRTYYADSVKGRFTISRDNSKNTLYLQMNSLSAEDTAAYYCAKDSYTTSWYGGMDVWGHGTTVTVSS
VL: DIQMTQSPSSVSASVGDRVTITCRASQGIFSWLAWYQQKPGKAPKLLIYAASSLQSGVPSRFSGSGSGTDFTLTISSLQPEDFAIYYCQQANSVPITFGQGTRLEIK

The first assay has as its target T1, human IL-33 (R&D Systems, #3625-IL-010/CF) (human).
Test: not given
On to B1, for which the IC50; SEAP reporter (OD 620), HEK-BLUE IL-33/IL-1beta cells, 10 pM hIL-33 is 1.5e-10 M.

As to B2, the IC50; SEAP reporter (OD 620), HEK-BLUE IL-33/IL-1beta cells, 10 pM hIL-33 turned out to be 1.1e-09 M.

As for B3, the IC50; SEAP reporter (OD 620), HEK-BLUE IL-33/IL-1beta cells, 10 pM hIL-33 was determined as 1.5e-09 M.

B4 came in with an IC50; SEAP reporter (OD 620), HEK-BLUE IL-33/IL-1beta cells, 10 pM hIL-33 of 2.6e-09 M.

B5: the IC50; SEAP reporter (OD 620), HEK-BLUE IL-33/IL-1beta cells, 10 pM hIL-33 was found to be 1.5e-10 M.

As for B6, the IC50; SEAP reporter (OD 620), HEK-BLUE IL-33/IL-1beta cells, 10 pM hIL-33 came out at 7.1e-10 M.

As for B7, the IC50; SEAP reporter (OD 620), HEK-BLUE IL-33/IL-1beta cells, 10 pM hIL-33 turned out to be 5.7e-10 M.

The next assay addresses T2, biotinylated human IL-33 (human). Nature of the assay: competitive ELISA, biotin-huIL-33 to coated hST2-Fc. A general note: An ELISA detects its analyte on a solid surface through an enzyme-linked reagent.
Broadly, the IC50 is the concentration that inhibits the measured activity by half. A low value points to greater potency in that assay. B1 yielded an IC50 of 0.25 nM and a Maximum Blocking of 85%.

Take B2: the IC50 came out at 0.7 nM and the Maximum Blocking is 63%.

As for B3, the IC50 stood at 0.44 nM and the Maximum Blocking came to 82%.

B4 showed an IC50 of 0.42 nM and a Maximum Blocking of 80%.

The molecule B8 showed an IC50 of 0.063 nM and a Maximum Blocking of 84%.

In the case of B5, the IC50 came to 0.19 nM and the Maximum Blocking turned out to be 87%.

Take B6: the IC50 came out at 0.21 nM and the Maximum Blocking was 81%.

As to B7, the IC50 was determined as 0.096 nM and the Maximum Blocking was 77%.

The target of the next assay is T1, human IL-33 (R&D Systems, #3625-IL-010/CF) (human). In words: SPR Biacore T200, 37 C. In general terms: In SPR one partner is held on a chip, and binding of the other changes the refractive index at the surface.
A word on the Kd: it is the equilibrium constant for the complex coming apart. Low values mean higher affinity, high ones lower affinity. Broadly, the koff is a measure of how fast the partners let go of each other. Higher therefore signals fast dissociation. What is called kon is the second-order rate constant of association. B1 showed a dissociation constant Kd of 0.242 nM, a koff of 0.000566 s⁻¹, a kon of 2.34e+06 M⁻¹ s⁻¹ and a t1/2 of 20 min.

Consider B2, for which the Kd was 1 nM, the dissociation rate constant (koff) was 0.00235 s⁻¹, the kon was 2.35e+06 M⁻¹ s⁻¹ and the t1/2 came to 5 min.

B3 showed a Kd of 0.517 nM, a koff of 0.00161 s⁻¹, a kon of 3.11e+06 M⁻¹ s⁻¹ and a t1/2 of 7 min.

As to B4, the Kd worked out at 0.519 nM, the koff stood at 0.000663 s⁻¹, the kon was determined as 1.28e+06 M⁻¹ s⁻¹ and the t1/2 stood at 17 min.

B8 had a Kd of 0.192 nM, a koff of 0.000779 s⁻¹, a kon of 4.06e+06 M⁻¹ s⁻¹ and a t1/2 of 15 min.

The molecule B5 yielded a Kd of 0.674 nM, an off-rate (koff) of 0.000531 s⁻¹, a kon of 789000 M⁻¹ s⁻¹ and a t1/2 of 22 min.

As to B6, the Kd is 0.934 nM, the dissociation rate constant (koff) came out at 0.00158 s⁻¹, the kon worked out at 1.69e+06 M⁻¹ s⁻¹ and the t1/2 stood at 7 min.

B7: the Kd stood at 0.552 nM, the koff was found to be 0.00203 s⁻¹, the kon is 3.68e+06 M⁻¹ s⁻¹ and the t1/2 turned out to be 6 min.

The target is the same in the next assay. In words: cell-based or functional assay.
In turn, B8 had an HEK-BLUE SEAP reporter IC50 of 0.011 nM; an IFN-γ secretion from primary NK cells, IC50 of 0.097 nM; a phospho-p38 in primary basophils, IC50 of 0.00038 nM.

For B5, the phospho-p38 in primary basophils, IC50 worked out at 0.00014 nM.

A further assay has the same target.
Test: not given
The source holds these as a separate data set.
B1 had a Ph-p38 MFI at 2 nM Ab (500 pM human IL-33, primary basophils) of 44 MFI.

In the case of B2, the Ph-p38 MFI at 2 nM Ab (500 pM human IL-33, primary basophils) was 105 MFI.

On to B3, for which the Ph-p38 MFI at 2 nM Ab (500 pM human IL-33, primary basophils) worked out at 80 MFI.

As for B4, the Ph-p38 MFI at 2 nM Ab (500 pM human IL-33, primary basophils) is 90 MFI.

The molecule B8 returned a Ph-p38 MFI at 2 nM Ab (500 pM human IL-33, primary basophils) of 30 MFI.

The molecule B5 yielded a Ph-p38 MFI at 2 nM Ab (500 pM human IL-33, primary basophils) of 40 MFI.

B6 returned a Ph-p38 MFI at 2 nM Ab (500 pM human IL-33, primary basophils) of 71 MFI.

In turn, B7 displayed a Ph-p38 MFI at 2 nM Ab (500 pM human IL-33, primary basophils) of 83 MFI.

For a further assay the target is unchanged.
Test: not given
The source holds these as a separate data set.
B1: the IC50; IFN-gamma ELISA, primary human NK cells, 260 pM hIL-33 + IL-12 is 1.2e-09 M.

Take B3: the IC50; IFN-gamma ELISA, primary human NK cells, 260 pM hIL-33 + IL-12 came out at 4.6e-09 M.

Turning to B6, the IC50; IFN-gamma ELISA, primary human NK cells, 260 pM hIL-33 + IL-12 stood at 1e-08 M.

For the next assay the target is unchanged.
Test: not given
The source holds these as a separate data set.
As to B1, the Ph-p38 MFI at 0.4 nM Ab (500 pM human IL-33, primary basophils) was 86 MFI.

B2 returned a Ph-p38 MFI at 0.4 nM Ab (500 pM human IL-33, primary basophils) of 106 MFI.

Take B3: the Ph-p38 MFI at 0.4 nM Ab (500 pM human IL-33, primary basophils) was 123 MFI.

B4 yielded a Ph-p38 MFI at 0.4 nM Ab (500 pM human IL-33, primary basophils) of 118 MFI.

B8 gave a Ph-p38 MFI at 0.4 nM Ab (500 pM human IL-33, primary basophils) of 48 MFI.

As for B5, the Ph-p38 MFI at 0.4 nM Ab (500 pM human IL-33, primary basophils) amounted to 63 MFI.

The molecule B6 registered a Ph-p38 MFI at 0.4 nM Ab (500 pM human IL-33, primary basophils) of 90 MFI.

For the molecule B7, the Ph-p38 MFI at 0.4 nM Ab (500 pM human IL-33, primary basophils) was 122 MFI.

For another assay the target is unchanged.
Test: not given
This is another data set of the same source.
On to B1, for which the IC50, IL-33-induced phospho-p38 in primary human basophils, 500 pM hIL-33 came out at 2.5e-09 M.

The molecule B2 showed an IC50, IL-33-induced phospho-p38 in primary human basophils, 500 pM hIL-33 of 2.4e-09 M.

Molecule B8 gave an IC50, IL-33-induced phospho-p38 in primary human basophils, 500 pM hIL-33 of 3.5e-13 M.

Molecule B6 came in with an IC50, IL-33-induced phospho-p38 in primary human basophils, 500 pM hIL-33 of 7.6e-06 M.

In the case of B7, the IC50, IL-33-induced phospho-p38 in primary human basophils, 500 pM hIL-33 was found to be 2.3e-12 M.

The target is the same in a further assay. Nature of the assay: SPR Biacore T200, 25 C.
Molecule B1 showed a Kd of 0.527 nM, an off-rate (koff) of 0.000459 s⁻¹, a kon of 871000 M⁻¹ s⁻¹ and a t1/2 of 25 min.

B2 displayed a Kd of 1.25 nM, a koff of 0.00116 s⁻¹, a kon of 931000 M⁻¹ s⁻¹ and a t1/2 of 10 min.

B3 gave a dissociation constant (Kd) of 0.558 nM, a koff of 0.000937 s⁻¹, a kon of 1.68e+06 M⁻¹ s⁻¹ and a t1/2 of 12 min.

Turning to B4, the Kd was found to be 0.761 nM, the koff stood at 0.000517 s⁻¹, the kon was determined as 680000 M⁻¹ s⁻¹ and the t1/2 amounted to 22 min.

B8: the Kd was determined as 0.391 nM, the koff came out at 0.000637 s⁻¹, the on-rate (kon) turned out to be 1.63e+06 M⁻¹ s⁻¹ and the t1/2 was found to be 18 min.

Molecule B5 had a Kd of 1.31 nM, a koff of 0.000445 s⁻¹, a kon of 339000 M⁻¹ s⁻¹ and a t1/2 of 26 min.

The molecule B6 displayed a Kd of 1.74 nM, a koff of 0.00115 s⁻¹, a kon of 665000 M⁻¹ s⁻¹ and a t1/2 of 10 min.

The molecule B7 showed a Kd of 0.736 nM, a koff of 0.000963 s⁻¹, a kon of 1.31e+06 M⁻¹ s⁻¹ and a t1/2 of 12 min.

The next assay has the same target.
Test: not given
The source holds these as a separate data set.
B7 came in with an IC50 (read off the curve) of 0.002 nM.
